Our source for the Kd values is PMC7344962 (Antibodies, 2020).

“And” between values parts separate entries of the source, which are not always exact repeats. Equal entries are not always repeated.

B1: scFv S1A0 (scFv, V domains shown)
VH: QVQLQQSGAELVRPGVSVKISCKGSGYTFTDYGMHWVKQSHAKSLEWIGIISTYSGDASYNQKFKGKATMTVDKSSSTAYMELARLTSEDSAIYYCARSSTWYYFDYWGQGTTLTVSS
VL: DIQVTQTTSSLSASLGDRVTISCRASQDISNYLNWYQQKPDGTVKLLIYYTSRLHSGVPSRFSGSGSGTDYSLTISNLEQEDIATYFCQQGNTLPYTFGGGTKLEIK
notes: VH A: wild-type heavy variable domain of the murine monoclonal IgG2a antibody 4F11E12 (anti-SAG1); the antibody is also in PDB 1YNT; (Gly4Ser)3 peptide linker; VL 0: wild-type light variable domain of the murine monoclonal IgG2a antibody 4F11E12 (anti-SAG1); VH-linker-VL orientation; also called wild-type scFv; WT scFv; source: E. coli HB2151 periplasm, purified (HisTrap HP); not shown: …
B2: scFv S1A4 (scFv, V domains shown)
VH: QVQLQQSGAELVRPGVSVKISCKGSGYTFTDYGMHWVKQSHAKSLEWIGIISTYSGDASYNQKFKGKATMTVDKSSSTAYMELARLTSEDSAIYYCARSSTWYYFDYWGQGTTLTVSS
VL: DIQMTQTPSSLSASLGDRVTISCRASQDISNYLNWYQQKPDGTVKLLIYYTSRLHSGVPSRFSGSGSGTDYSLTISNLEPEDIATYYCQQGNTLPYTFGGGTKLEIK
notes: VH A: as the VH of m1 (wild-type VH of 4F11E12); (Gly4Ser)3 peptide linker; VL 4: as VL 0 of m1 with the stated changes; numbers count on: IMGT numbering; VH-linker-VL orientation; source: E. coli HB2151 periplasm; periplasmic extract loaded on HiScreen Capto L, purified; not shown: Gly3AlaSerHis6, C-terminal, kept
B3: scFv S1C4 (scFv, V domains shown)
VH: QVQLQQSGAELVRPGVSVKISCKGSGYTFTDYGMHWVKQRPGHGLEWIGIISTYSGDASYNQKFKGKATMTVDKSSSTAYMELARLTSEDSAIYYCARSSTWYYFDYWGQGTTLTVSS
VL: DIQMTQTPSSLSASLGDRVTISCRASQDISNYLNWYQQKPDGTVKLLIYYTSRLHSGVPSRFSGSGSGTDYSLTISNLEPEDIATYYCQQGNTLPYTFGGGTKLEIK
notes: VH C: as VH A of m1 with only the cluster II substitutions (C-C' loop); numbers count on: IMGT numbering; (Gly4Ser)3 peptide linker; VL 4: as VL 0 of m1 with the stated changes; VH-linker-VL orientation; source: E. coli HB2151 periplasm; periplasmic extract loaded on HiScreen Capto L, purified; not shown: Gly3AlaSerHis6, C-terminal, kept
B4: scFv S1D4 (scFv, V domains shown)
VH: QVQLQQSGAELVRPGTSVKISCKASGYTFTDYGMHWVKQRPGHGLEWIGIISTYSGDASYNQKFKGKATMTVDKSSSTAYMQLSSLTSEDSAVYYCARSSTWYYFDYWGQGTLVTVSA
VL: DIQMTQTPSSLSASLGDRVTISCRASQDISNYLNWYQQKPDGTVKLLIYYTSRLHSGVPSRFSGSGSGTDYSLTISNLEPEDIATYYCQQGNTLPYTFGGGTKLEIK
notes: VH D: as VH A of m1 with the cluster II and cluster III substitutions (VH Z without cluster I); numbers count on: IMGT numbering; (Gly4Ser)3 peptide linker; VL 4: as VL 0 of m1 with the stated changes; VH-linker-VL orientation; source: E. coli HB2151 periplasm; periplasmic extract loaded on HiScreen Capto L, purified; not shown: Gly3AlaSerHis6, C-terminal, kept
B5: scFv S1B4 (scFv, V domains shown)
VH: QVQLQQSGAELVRPGTSVKISCKASGYTFTDYGMHWVKQSHAKSLEWIGIISTYSGDASYNQKFKGKATMTVDKSSSTAYMQLSSLTSEDSAVYYCARSSTWYYFDYWGQGTLVTVSA
VL: DIQMTQTPSSLSASLGDRVTISCRASQDISNYLNWYQQKPDGTVKLLIYYTSRLHSGVPSRFSGSGSGTDYSLTISNLEPEDIATYYCQQGNTLPYTFGGGTKLEIK
notes: VH B: as VH A of m1 with only the cluster III substitutions; (Gly4Ser)3 peptide linker; VL 4: as VL 0 of m1 with the stated changes; numbers count on: IMGT numbering; VH-linker-VL orientation; source: E. coli HB2151 periplasm; periplasmic extract loaded on HiScreen Capto L, purified; not shown: Gly3AlaSerHis6, C-terminal, kept

T1 sequence (P13664 48-336): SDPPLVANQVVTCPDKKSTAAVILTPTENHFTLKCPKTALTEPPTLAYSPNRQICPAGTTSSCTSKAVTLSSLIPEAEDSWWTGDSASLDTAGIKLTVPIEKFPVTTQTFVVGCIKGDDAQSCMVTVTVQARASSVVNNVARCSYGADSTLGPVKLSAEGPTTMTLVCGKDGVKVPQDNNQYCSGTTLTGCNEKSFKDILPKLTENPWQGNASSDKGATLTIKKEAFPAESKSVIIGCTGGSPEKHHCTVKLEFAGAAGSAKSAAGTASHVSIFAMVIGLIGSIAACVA

This assay has as its target T1, major surface antigen 1 (SAG1) of Toxoplasma gondii (Toxoplasma gondii, strain , UniProt P13664).
T1 construct: major surface antigen 1 (SAG1) of Toxoplasma gondii; SAG1 in complex with the parent antibody is in PDB 1YNT (cited); also called antigen SAG1
Nature of the assay: SPR; SAG1 covalently immobilised (1000 RU, EDC/NHS) on a CM5S chip; T200, 25 °C, HBS-EP+; single cycle kinetics with scFv at 600-200-66-22-7.5 nM, 50 µL/min; Langmuir 1:1 then two-state fitting model, similar Kd values in both. The following applies: both partners purified. For orientation: In SPR one partner is held on a chip, and binding of the other changes the refractive index at the surface.
As a reminder, the Kd is the constant that tells how readily two partners part at equilibrium. Lower therefore signals higher affinity. Regarding B1, the Kd was roughly 200 nM. Consider B2, for which the Kd is roughly 200 nM.

Consider B3, for which the Kd was ~200 nM and < 100 nM.

Turning to B4, the Kd is roughly 200 nM. The value for B5 was roughly 200 nM.
